Key:
[1] = molecular target: T1, full-length GRK2 (endogenous, mouse heart) (mouse (endogenous, in the hearts of the …, UniProt Q99MK8 1-689)); test: anti-FLAG immunoprecipitation from cardiac lysates of TgβARKnt mice 4 weeks after Sham or TAC, western blot
T1 construct: GRK2 in the heart'; also called βARK1
T1 sequence (looked up): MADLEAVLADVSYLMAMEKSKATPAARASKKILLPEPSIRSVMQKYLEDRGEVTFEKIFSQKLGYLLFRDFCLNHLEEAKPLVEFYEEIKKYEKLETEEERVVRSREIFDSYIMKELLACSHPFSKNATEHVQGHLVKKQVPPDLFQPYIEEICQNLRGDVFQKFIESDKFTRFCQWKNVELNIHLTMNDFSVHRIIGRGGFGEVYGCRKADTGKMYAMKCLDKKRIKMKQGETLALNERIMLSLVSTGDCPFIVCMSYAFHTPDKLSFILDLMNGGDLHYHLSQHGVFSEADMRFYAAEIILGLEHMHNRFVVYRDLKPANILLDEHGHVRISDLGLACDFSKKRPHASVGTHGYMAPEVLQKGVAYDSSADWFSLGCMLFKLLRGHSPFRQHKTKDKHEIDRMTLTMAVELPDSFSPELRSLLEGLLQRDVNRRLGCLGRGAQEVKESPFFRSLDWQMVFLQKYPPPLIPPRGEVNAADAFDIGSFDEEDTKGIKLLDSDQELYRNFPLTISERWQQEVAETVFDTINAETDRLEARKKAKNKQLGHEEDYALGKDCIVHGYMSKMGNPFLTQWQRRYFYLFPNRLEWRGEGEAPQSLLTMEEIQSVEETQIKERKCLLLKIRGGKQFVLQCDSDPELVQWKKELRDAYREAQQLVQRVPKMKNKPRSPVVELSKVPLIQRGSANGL

[2] = molecular target: T2, endogenous Gαq in the mouse heart (mouse (endogenous, in the hearts of the …, UniProt P21279 1-359)); test: anti-FLAG immunoprecipitation from cardiac lysates of TgβARKnt mice 4 weeks after Sham or TAC, western blot with anti-Gαq antibody
T2 construct: Endogenous protein in cardiac lysates, detected by western blot with anti-Gαq antibody; also called Gq; Gaq
T2 sequence (looked up): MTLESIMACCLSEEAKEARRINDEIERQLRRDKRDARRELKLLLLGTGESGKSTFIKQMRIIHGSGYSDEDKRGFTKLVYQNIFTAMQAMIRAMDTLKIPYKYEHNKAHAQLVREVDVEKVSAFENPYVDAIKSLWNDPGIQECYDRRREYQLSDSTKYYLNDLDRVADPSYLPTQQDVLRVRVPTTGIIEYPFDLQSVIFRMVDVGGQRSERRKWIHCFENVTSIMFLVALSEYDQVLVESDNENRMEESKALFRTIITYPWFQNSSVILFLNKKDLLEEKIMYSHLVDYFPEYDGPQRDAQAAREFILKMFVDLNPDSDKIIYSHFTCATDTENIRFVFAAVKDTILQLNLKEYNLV

binding result [1]: no binding | binding result [2]: no binding
B1: flag-tagged βARKnt (bovine GRK2 residues 50-145 with a carboxy-terminal flag-tag) (peptide)
chain: RGEVTFEKIFSQKLGYLLFRDFCLKHLEEAKPLVEFYEEIKKYEKLETEEERLVCSREIFDTYIMKELLACSHPFSKSAIEHVQGHLVKKQVPPDL
notes: An initiator Met is not described; also called βARKnt peptide; βARKnt-flag; not shown: carboxy-terminal flag-tag
